In patent US20210277140A1:

Molecular target: CD47 on Raji B cells (human) (UniProt Q08722)
Test: cell-based or functional assay

B1: anti human CD47 (mouse antibody), clone B6H12 (antibody, from another filing, IgG1, V domains shown)
VH: EVQLVESGGDLVKPGGSLKLSCAASGFTFSGYGMSWVRQTPDKRLEWVATITSGGTYTYYPDSVKGRFTISRDNAKNTLYLQIDSLKSEDTAIYFCARSLAGNAMDYWGQGTSVTVSS
VL: DIVMTQSPATLSVTPGDRVSLSCRASQTISDYLHWYQQKSHESPRLLIKFASQSISGIPSRFSGSGSGSDFTLSINSVEPEDVGVYYCQNGHGFPRTFGGGTKLEIK
whole cell eating of Raji B cells by CAR-P^FcRγ macrophages, antibody at 20 µg/ml: 2.5 fold
